Source: paper PMC9437722, “Identification of UDP-rhamnosyltransferases and UDP-galactosyltransferase involved in flavonol glycosylation in Morella rubra” (Horticulture Research, 2022)
One block for each molecule: values may come before it.

What was measured:
[1] = tested on: T1, MrUGT78W1; test: UDP-Glo glycosyltransferase assay, luminescence; assay type: biochemical, Morella rubra; details: 650 μM UDP-Gal, Tris-HCl 100 mM pH 8.5, 30°C
T1 construct: gene UGT78W1; full length, 469 residues (ORF 1410 bp), pET-32a(+) in E. coli BL21(DE3)pLysS, HisTALON purified, tag cleavage not mentioned; gene on chromosome 7
Excerpt: UDP-Glo glycosyltransferase assay, luminescence on MrUGT78W1

[2] = substrate: O=c1c(O)c(-c2cc(O)c(O)c(O)c2)oc2cc(O)cc(O)c12; test: purified protein; details: 650 μM UDP-Rha, Tris-HCl 100 mM pH 7.5, 35°C
[3] = substrate: O=c1c(O)c(-c2ccc(O)c(O)c2)oc2cc(O)cc(O)c12; test: UDP-Glo glycosyltransferase assay, luminescence; assay type: biochemical, Morella rubra; details: 650 μM UDP-Rha, Tris-HCl 100 mM pH 7.5, 35°C
Excerpt: (§1) UDP-Glo glycosyltransferase assay, luminescence on MrUGT78R2

[4] = substrate: O=c1c(O)c(-c2ccc(O)cc2)oc2cc(O)cc(O)c12; test: UDP-Glo glycosyltransferase assay, luminescence; assay type: biochemical, Morella rubra; details: 650 μM UDP-Rha, Tris-HCl 100 mM pH 7.5, 35°C
Excerpt: as §1

- Km [1]: 50 ± 4.63 µM
Molecule: O=c1c(O)c(-c2ccc(O)cc2)oc2cc(O)cc(O)c12 [K, Kaempferol]

Molecule: O=c1c(O)c(-c2ccc(O)c(O)c2)oc2cc(O)cc(O)c12 [Q, Quercetin]
- Km [1]: 93.5 ± 2.69 µM

- Km [1]: 13.7 ± 0.92 µM
Molecule: O=c1c(O)c(-c2cc(O)c(O)c(O)c2)oc2cc(O)cc(O)c12 [M, Myricetin]

B1: MrUGT78R2 (Morella rubra) (protein)
chain: MTQSSQDQHVAVLAFPLGCHPWPLLNLACKLACAAPNVRFSFFNTPKSNSKLFSTSQAEPPQNLKAYDVADGVPEGHVFTPGNPVEELELFLNAAPESFRNGMDMAVAETGREISCLLTDAFLVFASEMALDMHAKWVPFWVPAPHSLSAHMYSDLIYETYTNVCGGGEDGINTSDGDNYGTGTLGGIKPIDKTLDVIPGLSIMRFRDLPQQLLLGDFNSSLFSSALYRIGAVLPQASAVIMNSFQELNPATLTDDLKSKFQNLLYVGFLTLTLPPPPPPPSHSDATGCLPWLDDQKPTSVAYISFGTVSAVPPHEFVALAEALEASHVPFLWSLRDNFKEILPTGFLQRTRTQGKIVPWAPQAHVLAHKAVGVYVTHCGYNSVFESVVGEVPMICRPILGDNMFNGRMVEDVWGIGVGVEGGVFTKNGMLKSLEVVLGEEHGKRMREKIRDIKDLVVKAAGPTGIASKDFNTLVEVISK
notes: full length, 480 residues (ORF 1443 bp), pET-32a(+) in E. coli BL21(DE3)pLysS, HisTALON purified, tag cleavage not mentioned
- Km [2]: 66.78 ± 3.56 µM
- kcat/Km [2]: 34700 M⁻¹ s⁻¹
- Km [3]: 61.81 ± 8.74 µM
- kcat/Km [3]: 45900 ± 4500 M⁻¹ s⁻¹
- Km [4]: 58.11 ± 5.52 µM
- kcat/Km [4]: 37800 ± 2500 M⁻¹ s⁻¹
